What was measured:
[1] = molecular target: T1, rHuman IGF-1 sR (IGF-1 sR), CF (R&D Systems Cat#391-GR) (human, UniProt P08069 31-932); test: ECL (MSD multi-spot), antigen spotted on plate; Fab 200 nM; blank 1787
T1 construct: Bought soluble receptor; also called insulin-like growth factor-1 soluble receptor; IGF-R1

[2] = molecular target: T2, rHuman HGF R/c-MET/Fc Chimera, CF (R&D Systems Cat#358-MT/CF) (human, UniProt P08581 25-932); test: as above
T2 construct: Bought protein; also called HGF R/Fc; hepatocyte growth factor receptor; Fc part of the bought chimera not given

[3] = molecular target: T3, rHuman EGF R/Fc Chimera, CF (R&D Systems Cat#344-ER) (human, UniProt P00533 25-645); test: as above
T3 construct: Bought protein; also called epidermal growth factor receptor; Fc part of the bought chimera not given

[4] = molecular target: T4, Recombinant Human DLL4 (R&D Systems Cat#1506-D4/CF) (human, UniProt Q9NR61 27-524); test: as above
T4 construct: Bought protein; also called rHuman DLL4; delta-like protein 4

[5] = molecular target: T1, rHuman IGF-1 sR (IGF-1 sR), CF (R&D …); test: ECL (MSD multi-spot), antigen spotted on plate; Fab 1000 nM; blank 2186
[6] = molecular target: T2, rHuman HGF R/c-MET/Fc Chimera, CF (R&D …); test: as above
[7] = molecular target: T3, rHuman EGF R/Fc Chimera, CF (R&D …); test: as above
[8] = molecular target: T4, Recombinant Human DLL4 (R&D Systems …); test: as above
[9] = molecular target: T1, rHuman IGF-1 sR (IGF-1 sR), CF (R&D …); test: ECL (MSD multi-spot), antigen spotted on plate; Fab 8 nM; blank 1117
[10] = molecular target: T2, rHuman HGF R/c-MET/Fc Chimera, CF (R&D …); test: as above
[11] = molecular target: T3, rHuman EGF R/Fc Chimera, CF (R&D …); test: as above
[12] = molecular target: T4, Recombinant Human DLL4 (R&D Systems …); test: as above
[13] = molecular target: T1, rHuman IGF-1 sR (IGF-1 sR), CF (R&D …); test: ECL (MSD multi-spot), antigen spotted on plate; Fab 0.32 nM; blank 518
[14] = molecular target: T2, rHuman HGF R/c-MET/Fc Chimera, CF (R&D …); test: as above
[15] = molecular target: T3, rHuman EGF R/Fc Chimera, CF (R&D …); test: as above
[16] = molecular target: T4, Recombinant Human DLL4 (R&D Systems …); test: as above
[17] = molecular target: T1, rHuman IGF-1 sR (IGF-1 sR), CF (R&D …); test: ECL (MSD multi-spot), antigen spotted on plate; Fab 40 nM; blank 1442
[18] = molecular target: T2, rHuman HGF R/c-MET/Fc Chimera, CF (R&D …); test: as above
[19] = molecular target: T3, rHuman EGF R/Fc Chimera, CF (R&D …); test: as above
[20] = molecular target: T4, Recombinant Human DLL4 (R&D Systems …); test: as above
[21] = molecular target: T1, rHuman IGF-1 sR (IGF-1 sR), CF (R&D …); test: ECL (MSD multi-spot), antigen spotted on plate; Fab 1.6 nM; blank 713
[22] = molecular target: T2, rHuman HGF R/c-MET/Fc Chimera, CF (R&D …); test: as above
[23] = molecular target: T3, rHuman EGF R/Fc Chimera, CF (R&D …); test: as above
[24] = molecular target: T4, Recombinant Human DLL4 (R&D Systems …); test: as above
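Also: blank spot per well as comparator with Hit at signal to blank ratio of 4 or more.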

B1: Fab VH1-46_IGHD6-6*01>1_IGHJ1*01_S104F & L6_IGKJ1*01 (Fab, V domains shown)
VH: QVQLVQSGAEVKKPGASVKVSCKASGYTFTSYYMHWVRQAPGQGLEWMGIINPSGGSTSYAQKFQGRVTMTRDTSTSTVYMELSSLRSEDTAVYYCAREEYSSFSAEYFQHWGQGTLVTVSS
VL: not shown
notes: Expressed in E. coli as a Fab; The heavy chain also carries the CH1 with Flag and His tags from Plasmid A, and the light chain the kappa CL from Plasmid C; also called VH1-46_IGHD6-6*01_IGHJ1*01 S104F & L6_IGKJ1*01; IGHV1-46*01
Binder B1 has an ECL signal [1] of 2780, an ECL signal [2] of 2840 and an ECL signal [3] of 2920. It also gave an ECL signal [4] of 58700, an ECL signal [5] of 3070 and an ECL signal [6] of 3310. For the same binder, the ECL signal [7] was 3580, the ECL signal [8] was 35300 and the ECL signal [9] was 1520. It also gave an ECL signal [10] of 1620, an ECL signal [11] of 1470 and an ECL signal [12] of 44800. For the same binder, the ECL signal [13] was 630, the ECL signal [14] was 710 and the ECL signal [15] was 709. The ECL signal [16] was 916, the ECL signal [17] was 2140 and the ECL signal [18] was 2110. The ECL signal [19] was 2300, the ECL signal [20] was 62000 and the ECL signal [21] was 966. It also gave an ECL signal [22] of 861, an ECL signal [23] of 987 and an ECL signal [24] of 5920.
